Test system: hES cells
Assay: Embryoid body differentiation of hES cells, visual scoring of beating EBs
Type: cell-based, human
Conditions: growth factor 10 ng/ml added to END2-CM, day 12, compared to END2-CM alone
Method: This procedure describes the formation of embryoid bodies (EB) from collagenase-derived hES cell cultures. After formation the EBs were then exposed to END2 conditioned medium (CM).
Enzymatically passaged hES cells grown on feeder cells were washed once with PBS^+ and treated with Collagenase IV (1 mg/ml) for 3-4 min at 37° C. The Collagenase IV solution was replaced by DMEM and the cells were mechanically dissociated with a pipette tip. Cells were then harvested using a cell scraper and the cell suspension was transferred to a 50 ml tube (Falcon). Cell clumps were collected by gravity and the supernatant was aspirated. Cells were resuspended in fresh DMEM medium aiming to uniformly disperse the cell clumps in the suspension. An equal volume of the cell suspension was then transferred to ultra low attachment plates (Costar). […]
In suspension culture, EBs are formed in ultra low attachment plates in SF medium over night. […] Usually, cells were cultured over a period of 12-13 days before the visual analysis of the proportion of beating EBs under a microscope was performed followed by cell collection for additional readouts. Multiple beating areas on single EBs were not counted separately. Values are expressed as a percentage of contracting EBs compared to […] in a single well of a 6-well tray. […] An average value per well was calculated and presented.

B1: Bmp6: recombinant human Bmp6 (R&D) (protein, UniProt P22004 375-513, looked up)
Bone morphogenetic protein 6: SASSRRRQQSRNRSTQSQDVARVSSASDYNSSELKTACRKHELYVSFQDLGWQDWIIAPKGYAANYCDGECSFPLNAHMNATNHAIVQTLVHLMNPEYVPKPCCAPTKLNAISVLYFDDNSNVILKKYRNMVVRACGCH
CM induction activity (number of beating areas): enhance CM induction activity

Source: patent US8318489B2, “Prostacyclin directed differentiation of cardiomyocytes from human embryonic stem cells” (priority 2005, dated 2012)
